Measured values published in the nanobody polyreactivity screen of Harvey et al. (2022).

Test: yeast display, Sf9 membrane polyspecificity reagent, FACS + sequencing; frameworks hold sequencing errors
Procedure, shortened: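 A nanobody's polyreactivity label depends on the gate it was sorted from. Yeast display cells were stained with 10% biotinylated, detergent-solubilized Sf9 membrane reagent for 1 hour at 4 °C, enriched on streptavidin microbeads and sorted by FACS. The low and high (top ~1%) gates were set on anti-HA fluorescence for expression and streptavidin fluorescence for reagent binding.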

Row | Sequence | polyreactivity (PSR sort gate)
1 | QVQLVESGGGLVQAGGSLRLTSAASGFIFWPYLMGWYRQAPGKDRELVAAISQGDGSTYYADSVKVRFTISRDNAKNTVYLQMNSLKGEDTAVYYCAADVTVAWYPVYPGFYYWGQGTQVTVSS | low polyreactivity
2 | QVQLVESGGGLVQAGGSLRLSCAASGNIFVGNDMGWYRQAPGKERELVAAISSGDTTSYADSVKGRFTISRDNAKNTVYLQMNSLKPEDTAVYYCNTDAPYLLWFTNRYDYWGQGTQVTVSS | low polyreactivity
3 | QVQLVESGGGLVQAGGSLRLSCAASGRTFSSYAMGWYRQAPGKEREFVAAISRSGASTRYADSVKGRFTISRDNAKNTVYLQMNSLKPEDTAVYYCAAVWPDVRGYDYWGQGTQVTVSS | high polyreactivity
4 | QVQLVESGGGLVQAGGSLRLSCAATGLIFSLYAMGWYRQAPGKERELVAAISASDGSTYYADSVKGRFTISRDNAKNTVYLQMNSLKPEDTAVYYCAADSRPTQEYDYWGQGTQVTVSS | low polyreactivity
5 | QVQLVESGGGLVQAGGSLRLSCAASGFTLGRYAKGWYRQAPGKERELVAAISSGGRTYYADSVKGRFTISRDNAKNTVYLQMNSLKPEDTAVYYCAADPRYISYDYWGQGTQVTVSS | low polyreactivity
6 | QVQLVESGGGLVQAGGSLRLSCAASGRTFSYNAIGWYRQAPGKERTNYADSVKGRFTISRDNAKNTVYLQMNSLKPEDTAVYYCAVEPYLSYPPTSIDNDYDYWGQGTQVTVSS | low polyreactivity
7 | QVQLVDSGGGLVQAGASLPLSCAASGATFYIYARGWNIQAPGKERELVAANTWSGGRTFYADSVKGRFTMSRDNAKNTDYLQMNSLKPEDTAVYYCANRVRTGSVGNFNYWGQGTQVNVSS | high polyreactivity
8 | QVQLVESGGGLVQAGGSLRLSCAASGIILPYYVMGSYRPAPGKERELVAAISSGGRTYYADSVKGRFTISRDNAKNTVYLQMNSLKPEDTAVYYCNAYFTGKWYDYWVQGTQVTVSS | high polyreactivity
9 | QVQLVESGGGLVQAGGSLRLSCAASGRIFKYYGMGWYRQAPGKERELVAAISRGSSTNYADSVKGRFTISRDNAKNTVYLQMNSLKPEDTAVYYCAVSLRRGGSGYAYDYWGQGTQVTVSS | high polyreactivity
10 | QVQLVESGGGLVQAGGSLRLICAASGRILKYNAMGWYRQAPGKERELVAAISYRGGSTYYADSVKGRFTISRDTAKYTVYLLMNSLKPEDTAVYYCNAGGGILNGPLFDYWGQGTQVTVSS | low polyreactivity
11 | QVQLVESGGGLVQAGGSLRLSCAASGRIFAYYTMGWYRQAPGKERELVAAITKRGGSTYYADSVKGRFTISRDNAKNTVYLQMNSLKPEDTAVYYCAADPHRYRYRSPHDYWGQGTQVTVSS | high polyreactivity
12 | QVQLVESGGGLVQAGGSLRLSCAASGSTFDVNAMGWYRQAPGKERELVAAISFSGGSTYYADSVKGRFTISRDNAKNTVYLQMNSLKPEDTAVYYCAAEEWRSYYEEYDYWGQGTQVTVSS | low polyreactivity
13 | QVQLVESGGGLVQAGGSLRLSCAASGIIYNPNAMGWYRQAPGKERELVAVISISDSTNYADSVKGRFTISRDNAKNTVYLQMNSLKPEDTAVYDCATASAGTLSVTYYHWYDDWGQGTQVTVSS | low polyreactivity
14 | QVQLVESGGCLVQAGGSLRLSCAASGSTFLKYTMGWYRQAPGKERELVAAITASGGRTYYADSVKGRFTISRDNAKITVYLQMNSLKPEDTAVYYCAARGFDRYYWGQGTQVTVSS | high polyreactivity
15 | QVQLVESGGGLVQAGGSLRLSCAASGRTFRNYAMGWYRQAPGKERELVAAISRSGGITYYADSVKGRFTISRDNSKNTVYLQMNSLKPEDTAVYYCAARHTYQGPGTYPMFYWGQGTQVTVSS | high polyreactivity
16 | QVQLVESGGGLVQAGGSLRLSCAASGFIFQANAMGWYRQAHGKERELVAAIRSGDRTYYADSVKGRFTISRDNAKNTVYLQMNSLKPEDTAVYYCAAFYHHYYRYDYWGQGTQVTVSS | low polyreactivity

Row | Sequence | polyreactivity (PSR sort gate)
17 | QVQLVESGGGLVQAGGSLRLSCAASGSTFVWNAMGGYRQAPGKERELVAAITNDGRTNYADSVKGRFTISRDNAKNTVYLQMNSRKPEDTAVYYCNADGYNSYWWNYYWGQGTQVTVSS | low polyreactivity
18 | QVQLVESGGGLVQAGGSLRLSCAASGRTFPSYAMGWYRQAPGKERELVAAISRSGGSTYYADSVKGRFTISRDNAKNTVYLQMNSLKPEDTAVYYCAAVSRVHFSYIYDYWGQGTQVTVSS | high polyreactivity
19 | QVQLVESGGGLVQAGGSLRLSCAASGRTFWNAMGWYRQEPGKERELVATITSGGITNYADSVKGRFTISRDNAKNTVYLQMNSLKPEDTAVYYCAARPYTWRNFRPSDYWGQGTQVTVSS | high polyreactivity
20 | QVQLQESGGGLLQVGGSLRLSCAASGTIFIYGFLGWNRQAPGKERELVASINLGGITNYADSVKGRFTISRDNAKKTVYLQMISLKPEDTAVYYCAAYVVTGQNYGYWGQGTQVTVSS | low polyreactivity
21 | QVQLVESGGGLVQAGGSLRLSCAASGLTLNYYAMGWYRQAPGKERELVASISRSGGRTYYADSVKGRFTISRVNAKNTVYLQMNSLKPDDSAVYYCNADWYRGRYDYWGQGTQVTVSS | high polyreactivity
22 | QVQLVESGGGLVQAGGSLRLSCAASGRTIVSNAMGWYRQAPGKERELVAAITRGSRTYYADSVKGRFTISRDNAKNTVYLQMNILKPEDTAVYYCAAYRDYGSYGSWGQGTQVTVSS | high polyreactivity
23 | QVQLVESGGGLVQAGGSLRLSCAASGRTFYGYAMGWYRQAPGKERELVAGITSRVGSTYYADSVKGRFTISRDNAKNTVYLQMNSLKPEDTAVYYCAADRYAVRSYHYDYWGQGTQVTVSS | low polyreactivity
24 | QVQLLESGGGLVQAGGSLRLSCAASGSIFGGYSMGWYRQAPGKERELVAAISWSGASTYYADSVKGRFTISRDNATTTVSLQMNSLKPEDTAVYSCAARSRVDLARSGYWGQGCQVTVSS | low polyreactivity
25 | QVQLVESAGGLVQAGGSLRLSCAASGFIFEWYTMGWYRHAPGKERELVARISSDGSTTYADSVKGRFRISRDNAKNTVYLQMNSLKPEDTAVYYCAADVTYPGLKYIFDYWGQGSQVTVSS | low polyreactivity
26 | QVQLVESGGGLVQAGGSLRLSCAASGRIFQYYAMGWYRQAPGKERELVAAITRSGGRTYYADSVKGRFTISRDNAKNTVYLQMYSLKPEDTAVYYCAASQRYSVIYYGFSEYDYWGQGTQVTVSS | high polyreactivity
27 | QVQLVESGGGLVQAGGSLRLSCAASGRIFYDNTMGWYRQAPGKERELFAAITWRVGNTNYADSVKGRFTISRDNAKNTVYLQMNSLNPEDTAVYYCAVRLLADDGYPAVVGYDYWGQGTQVTVSS | low polyreactivity
28 | QVQLVESGGGLVQAGGSLRLSCAASGFIFSYNAMRWYRQAPGKERELTYADSVKGRFTISRDNAKNTVYLQMNSLKPEDTAVYFCAAGEYGRQYDGDYWGQATQVTVSS | low polyreactivity
29 | QVQLVESGGGLVQAGGSLRLSCAASGSTFYAYAMGWYRQAPGKERELVAAISSDGTNYADSVKGRFTISRDNAKNSVNLQMNSLKPVDTAVYYCAADLLLYSSQDNDYWGQGTQVTVSS | low polyreactivity
30 | QVQLVESGGGLVQAGGSLRLSCAASGFTFTYYAMGWYRQAPGKERELVAAISWNGGSTYYADSVKGRFTISRDNAKNTVYLQMNSLKPEDTAVYYCNAYDYQYFYGYEYDYWGQGTQVTVSS | high polyreactivity
31 | QLQLVESGGGLVPAGGSLRLSCASSGSIFKTYAMGWSRQAPGKDRELVAAIRGSGGSTYYADSVKGRFTIARDYAKNTVYLQMKSLKPEDTAFYYCARVGTKYRTNFFNGNDDWGQGTQVTVSS | low polyreactivity
32 | QVQLVESGGGLVQAGGSLRLICAASGRIFLGYAMGWYRQAPGKERELVARITLIGGGTNYADSVKGRFTISRDNAKNTVYLQMNSLKPVDTAVYYCAAKSPLRPWWVGAVSGNYWGQGTQVTVSS | low polyreactivity
